Measurements as given in patent US20190359653A1 (Genentech, published 2019).
Numbered stars: 1 amine (or outer) side, 2 acyl side, 3 side chain; on linkers, the order of the positions; unused ones are H or OH. Square brackets hold non-standard residues; d marks the D form. Ends that are not written are not given here. * marks the point of attachment. ξ: configuration not given here. Adp = 2-amino-3-decyloxy-propionic acid, CCCCCCCCCCOC[C@H](N[*:1])C(=O)[*:2]; Tbh = 6-hydroxy-L-norleucine, O=C([C@H](CCCCO[*:3])N[*:1])[*:2]; hPhe = N[C@@H](CCc1ccccc1)C(=O)O; ξGly(octyl) = CCCCCCCCC(N)C(=O)O; hLeu = CC(C)CC[C@H](N)C(=O)O; Octanoyl = CCCCCCCC(=O)*

T1: hFZD8 CRD-Fc (human, UniProt Q9H461 28-158, limits assumed)
T1 construct: domain: CRD; bought (R&D Systems); not shown: Fc part
T1 sequence (looked up): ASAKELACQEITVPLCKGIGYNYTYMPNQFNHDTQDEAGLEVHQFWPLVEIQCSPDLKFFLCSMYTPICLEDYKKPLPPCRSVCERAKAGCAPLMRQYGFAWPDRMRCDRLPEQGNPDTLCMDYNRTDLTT

B1: SEQ ID NO 33 (peptide)
peptide: FDFCSVMPQFIYCPGD
modifications: not fully specified; cysteine pairing not given here
notes: cyclic peptide library; also called Fz7-20

biological target: T2, FZD7 receptor of HEK293-TB cells (human, UniProt O75084 33-574); experiment: cell-based or functional assay

Binder	fold reduction of the potency of Wnt1 inhibition against Fz7-21 (FIG. 2D)	fold reduction of the potency of Wnt3a inhibition against Fz7-21 (FIG. 2D)
Ac-LPSDDLEFW[dC]HVMY-NH2 [Fz7-21C]	16 fold	31 fold

biological target: T2, FZD7 receptor of HEK293-TB cells; experiment: cell-based or functional assay; remark: another data set of the same source

Binder	IC50 (nM), TOPbrite reporter assay in HEK293-TB cells stimulated with mWnt3a (50 ng/mL)	Reduction in fold potency vs. dimer
Ac-LPSDDLEFWCHVMY-NH2 (also: homodimer via Cys10-Cys10 disulfide) [dFz7-21]	11.1 nM	1 fold
Ac-SDDLEFWCHVMY-NH2 (also: homodimer via Cys8 disulfide) [dFz7-21Δ2 (Q519)]	8.8 nM	1 fold
Ac-LPSDDLEFWSHVMY-NH2 [Fz7-21S]	–	> 9000 fold

biological target: T3, hFZD7 CRD-Fc (human, UniProt O75084 33-185); experiment: spot phage ELISA

Binder	signal:noise ratio
DTDLHQWCLWFT [SEQ ID NO 6]	30.2
DTDLLQWCLWFT [SEQ ID NO 14]	31.1
TYFDDICNLILPWANP [SEQ ID NO 2]	27.5
IWFKGRFVEFSSLV (also called Fz7-17) [SEQ ID NO 23]	7.7
GDFWPGSLLWEILV [SEQ ID NO 17]	4.4
NAFWRDQCLEWFIICL [SEQ ID NO 24]	5.5
PPNVHEGCWSMFPW [SEQ ID NO 12]	28.1
LPLFFLSYVL [SEQ ID NO 19]	6.3
ILTFEYFWILGLIL [SEQ ID NO 18]	4.5
LSSGKKVSSYWFNFWF [SEQ ID NO 30]	3.5
PQDLLDWCHYMIVSSD [SEQ ID NO 3]	29.1
EHDLLLRAMNSFVLIF [SEQ ID NO 25]	7.6
ERRVCYPWFEVSQP [SEQ ID NO 29]	2.6
ASELHDWCRMMFPW [SEQ ID NO 10]	28.9
NPPPECFLSK [SEQ ID NO 27]	5.2
VFVPFSELTSLC [SEQ ID NO 22]	7.8
FLPDQHSHLFLPWGEP [SEQ ID NO 20]	5.3
SCQMWSNLRVLFLSYW [SEQ ID NO 21]	1
VFFYHSLFFIKLILDP [SEQ ID NO 28]	4.7
FCENPYIICW [SEQ ID NO 26]	8.6
ISLIEAMIALDRVF (also called Fz7-06) [SEQ ID NO 11]	27
FWMLLQEGFAFWFP [SEQ ID NO 7]	30.5
ACSYVIDLWNLCLR [SEQ ID NO 9]	27.6
FELLLDLGDLIRLW [SEQ ID NO 8]	26.9
FWFDFWFG [SEQ ID NO 31]	4.2

biological target: T1, hFZD8 CRD-Fc; experiment: spot phage ELISA

Binder	signal:noise ratio
DTDLHQWCLWFT [SEQ ID NO 6]	9.3
DTDLLQWCLWFT [SEQ ID NO 14]	6
TYFDDICNLILPWANP [SEQ ID NO 2]	1.4
IWFKGRFVEFSSLV (also called Fz7-17) [SEQ ID NO 23]	1
GDFWPGSLLWEILV [SEQ ID NO 17]	1
NAFWRDQCLEWFIICL [SEQ ID NO 24]	1.1
PPNVHEGCWSMFPW [SEQ ID NO 12]	1.3
LPLFFLSYVL [SEQ ID NO 19]	1.1
ILTFEYFWILGLIL [SEQ ID NO 18]	1.1
LSSGKKVSSYWFNFWF [SEQ ID NO 30]	1
PQDLLDWCHYMIVSSD [SEQ ID NO 3]	1.3
EHDLLLRAMNSFVLIF [SEQ ID NO 25]	1
ERRVCYPWFEVSQP [SEQ ID NO 29]	1.2
ASELHDWCRMMFPW [SEQ ID NO 10]	1.3
NPPPECFLSK [SEQ ID NO 27]	1.1
VFVPFSELTSLC [SEQ ID NO 22]	1
FLPDQHSHLFLPWGEP [SEQ ID NO 20]	1
SCQMWSNLRVLFLSYW [SEQ ID NO 21]	0.7
VFFYHSLFFIKLILDP [SEQ ID NO 28]	1.3
FCENPYIICW [SEQ ID NO 26]	0.8
ISLIEAMIALDRVF (also called Fz7-06) [SEQ ID NO 11]	25.8
FWMLLQEGFAFWFP [SEQ ID NO 7]	6.4
ACSYVIDLWNLCLR [SEQ ID NO 9]	1.5
FELLLDLGDLIRLW [SEQ ID NO 8]	2
FWFDFWFG [SEQ ID NO 31]	0.8

biological target: T2, FZD7 receptor of HEK293-TB cells; experiment: cell-based or functional assay; remark: another data set of the same source

Binder	IC50 (µM), Wnt3a-mediated β-catenin signaling, TOPbrite reporter in HEK293-TB cells (50 ng/mL mWnt3a)
Ac-LPSDNLEFWCHVMY-NH2 [Fz7-21N]	0.41 µM

biological target: T3, hFZD7 CRD-Fc; experiment: spot phage ELISA; remark: another data set of the same source

Binder	signal:noise ratio
HLSDVCCSDWCDLVFW (not fully specified; cysteine pairing not given here, cyclic peptide library) [SEQ ID NO 34]	16.1
HLSDVFCSDWCDLVFW (not fully specified; cysteine pairing not given here, cyclic peptide library) [SEQ ID NO 38]	17.5
FDFCSVMPHFIYCPGD (not fully specified; cysteine pairing not given here, cyclic peptide library) [SEQ ID NO 37]	27.5
B1	26
FDFCTVMPHFIYCPGD (not fully specified; cysteine pairing not given here, cyclic peptide library) [SEQ ID NO 36]	27.4
SSDFSGCLSWCDLIFG (not fully specified; cysteine pairing not given here, cyclic peptide library) [SEQ ID NO 32]	28.4
TSDFSWCLSWCDLIFW (not fully specified; cysteine pairing not given here, cyclic peptide library) [SEQ ID NO 35]	28.4

biological target: T1, hFZD8 CRD-Fc; experiment: spot phage ELISA; remark: another data set of the same source

Binder	signal:noise ratio
HLSDVCCSDWCDLVFW (not fully specified; cysteine pairing not given here, cyclic peptide library) [SEQ ID NO 34]	1.09
HLSDVFCSDWCDLVFW (not fully specified; cysteine pairing not given here, cyclic peptide library) [SEQ ID NO 38]	1.28
FDFCSVMPHFIYCPGD (not fully specified; cysteine pairing not given here, cyclic peptide library) [SEQ ID NO 37]	1.12
B1	2.1
FDFCTVMPHFIYCPGD (not fully specified; cysteine pairing not given here, cyclic peptide library) [SEQ ID NO 36]	2.01
SSDFSGCLSWCDLIFG (not fully specified; cysteine pairing not given here, cyclic peptide library) [SEQ ID NO 32]	1.39
TSDFSWCLSWCDLIFW (not fully specified; cysteine pairing not given here, cyclic peptide library) [SEQ ID NO 35]	1.27

biological target: T2, FZD7 receptor of HEK293-TB cells; experiment: cell-based or functional assay; remark: another data set of the same source

Binder	Best Fit IC50 (nM), Wnt3a-mediated β-catenin signaling in HEK293-TB cells (50 ng/mL mWnt3a)	Best Fit IC50 (nM), Wnt3a-mediated β-catenin signaling in HEK293-TB cells (50 ng/mL mWnt3a), n = 2
Ac-SDDLEFWCHV[Adp]Y-NH2 (also: dimer via disulfide bond at Cys8) [dFz7-21Δ2.M13Adp]	1410 nM	–
Ac-SDD[hPhe]EFWCHVMY-NH2 (also: dimer via disulfide bond at Cys8) [dFz7-21Δ2.L6Hof]	14.9 nM	–
Ac-SDD[hLeu]EFWCHVMY-NH2 (also: dimer via disulfide bond at Cys8) [dFz7-21Δ2.L6Hol]	–	16600 nM
Ac-SDDK(Octanoyl)EFWCHVMY-NH2 (also: dimer via disulfide bond at Cys8) [dFz7-21Δ2.L6KC (8)]	1170 nM	–
Ac-SDDLEFWCHV[ξGly(octyl)]Y-NH2 (also: dimer via disulfide bond at Cys8) [dFz7-21Δ2.M13C8]	14000 nM	–
Ac-SDDLEFWCHV[Tbh]Y-NH2 (also: dimer via disulfide bond at Cys8) [dFz7-21Δ2.M13Tbh]	477 nM	–
Ac-LPSDDLEFWCHVMY-NH2 (also: homodimer via Cys10-Cys10 disulfide) [dFz7-21]	14.1 nM	–
Ac-SDDLEFWCHVMY-NH2 (also: homodimer via Cys8 disulfide) [dFz7-21Δ2 (Q519)]	4.3 nM	–
